Columns and labels:
galectin-3 [1] = molecular target: T1, galectin-3 (human (endogenous in A2780), UniProt P17931 1-250, biotinylated (printed: 'biotinylated galectin-3')); assay: SPR
galectin-3 [2] = molecular target: T1, galectin-3; assay: SPR; remark: listed apart in the source
galectin-3 [3] = molecular target: T1, galectin-3; assay: SPR; platelets exposed to Revacept
galectin-3 [4] = molecular target: T1, galectin-3; assay: SPR; platelets exposed to anti-GPVI mAb

T1 sequence (P17931 whole entry): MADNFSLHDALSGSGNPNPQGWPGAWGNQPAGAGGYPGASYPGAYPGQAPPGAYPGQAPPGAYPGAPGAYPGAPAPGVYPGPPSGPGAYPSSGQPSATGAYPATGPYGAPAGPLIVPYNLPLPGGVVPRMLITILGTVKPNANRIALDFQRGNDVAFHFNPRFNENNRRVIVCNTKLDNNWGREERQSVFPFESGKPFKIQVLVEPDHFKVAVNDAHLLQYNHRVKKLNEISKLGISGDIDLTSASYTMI

Kd (galectin-3 [1]): 42.2 µM
Kd (galectin-3 [2]): 48.6 µM
Kd (galectin-3 [3]): 16.2 µM
Kd (galectin-3 [4]): 21.4 µM
B1: platelet glycoprotein VI (GPVI) (receptor)
chain: QSGPLPKPSLQALPSSLVPLEKPVTLRCQGPPGVDLYRLEKLSSSRYQDQAVLFIPAMKRSLAGRYRCSYQNGSLWSLPSDQLELVATGVFAKPSLSAQPGPAVSSGGDVTLQCQTRYGFDQFALYKEGDPAPYKNPERWYRASFPIITVTAAHSGTYRCYSFSSRDPYLWSAPSDPLELVVTGTSVTPSRLPTEPPSPVAEFSEATAELTVSFTNEVFTTETSRSITASPKESDSPAGPARQYYTKGNLVRICLGAVILIILAGFLAEDWHSRRKRLRHRGRAVQRPLPPLPPLPLTRKSNGGQDGGRQDVHSRGLCS
